Consider one substance from paper PMC6231325.

This assay concerns the target GFP_CaV2.2-HA (rabbit) (UniProt Q05152). As to the kind of experiment: co-IP; competition: tsA-201 cells transfected with GFP_CaV2.2-HA, β1b, α2δ-1 and (TASK3, Cachd1 or a 1:1 mix of both) in a ratio of 2:1:2:1; IP with anti-GFP Ab, 300 mM NaCl, digitonin; α2δ-1 in IP/input normalised to no Cachd1.
Sequence of UniProt Q05152 (Q05152 whole entry): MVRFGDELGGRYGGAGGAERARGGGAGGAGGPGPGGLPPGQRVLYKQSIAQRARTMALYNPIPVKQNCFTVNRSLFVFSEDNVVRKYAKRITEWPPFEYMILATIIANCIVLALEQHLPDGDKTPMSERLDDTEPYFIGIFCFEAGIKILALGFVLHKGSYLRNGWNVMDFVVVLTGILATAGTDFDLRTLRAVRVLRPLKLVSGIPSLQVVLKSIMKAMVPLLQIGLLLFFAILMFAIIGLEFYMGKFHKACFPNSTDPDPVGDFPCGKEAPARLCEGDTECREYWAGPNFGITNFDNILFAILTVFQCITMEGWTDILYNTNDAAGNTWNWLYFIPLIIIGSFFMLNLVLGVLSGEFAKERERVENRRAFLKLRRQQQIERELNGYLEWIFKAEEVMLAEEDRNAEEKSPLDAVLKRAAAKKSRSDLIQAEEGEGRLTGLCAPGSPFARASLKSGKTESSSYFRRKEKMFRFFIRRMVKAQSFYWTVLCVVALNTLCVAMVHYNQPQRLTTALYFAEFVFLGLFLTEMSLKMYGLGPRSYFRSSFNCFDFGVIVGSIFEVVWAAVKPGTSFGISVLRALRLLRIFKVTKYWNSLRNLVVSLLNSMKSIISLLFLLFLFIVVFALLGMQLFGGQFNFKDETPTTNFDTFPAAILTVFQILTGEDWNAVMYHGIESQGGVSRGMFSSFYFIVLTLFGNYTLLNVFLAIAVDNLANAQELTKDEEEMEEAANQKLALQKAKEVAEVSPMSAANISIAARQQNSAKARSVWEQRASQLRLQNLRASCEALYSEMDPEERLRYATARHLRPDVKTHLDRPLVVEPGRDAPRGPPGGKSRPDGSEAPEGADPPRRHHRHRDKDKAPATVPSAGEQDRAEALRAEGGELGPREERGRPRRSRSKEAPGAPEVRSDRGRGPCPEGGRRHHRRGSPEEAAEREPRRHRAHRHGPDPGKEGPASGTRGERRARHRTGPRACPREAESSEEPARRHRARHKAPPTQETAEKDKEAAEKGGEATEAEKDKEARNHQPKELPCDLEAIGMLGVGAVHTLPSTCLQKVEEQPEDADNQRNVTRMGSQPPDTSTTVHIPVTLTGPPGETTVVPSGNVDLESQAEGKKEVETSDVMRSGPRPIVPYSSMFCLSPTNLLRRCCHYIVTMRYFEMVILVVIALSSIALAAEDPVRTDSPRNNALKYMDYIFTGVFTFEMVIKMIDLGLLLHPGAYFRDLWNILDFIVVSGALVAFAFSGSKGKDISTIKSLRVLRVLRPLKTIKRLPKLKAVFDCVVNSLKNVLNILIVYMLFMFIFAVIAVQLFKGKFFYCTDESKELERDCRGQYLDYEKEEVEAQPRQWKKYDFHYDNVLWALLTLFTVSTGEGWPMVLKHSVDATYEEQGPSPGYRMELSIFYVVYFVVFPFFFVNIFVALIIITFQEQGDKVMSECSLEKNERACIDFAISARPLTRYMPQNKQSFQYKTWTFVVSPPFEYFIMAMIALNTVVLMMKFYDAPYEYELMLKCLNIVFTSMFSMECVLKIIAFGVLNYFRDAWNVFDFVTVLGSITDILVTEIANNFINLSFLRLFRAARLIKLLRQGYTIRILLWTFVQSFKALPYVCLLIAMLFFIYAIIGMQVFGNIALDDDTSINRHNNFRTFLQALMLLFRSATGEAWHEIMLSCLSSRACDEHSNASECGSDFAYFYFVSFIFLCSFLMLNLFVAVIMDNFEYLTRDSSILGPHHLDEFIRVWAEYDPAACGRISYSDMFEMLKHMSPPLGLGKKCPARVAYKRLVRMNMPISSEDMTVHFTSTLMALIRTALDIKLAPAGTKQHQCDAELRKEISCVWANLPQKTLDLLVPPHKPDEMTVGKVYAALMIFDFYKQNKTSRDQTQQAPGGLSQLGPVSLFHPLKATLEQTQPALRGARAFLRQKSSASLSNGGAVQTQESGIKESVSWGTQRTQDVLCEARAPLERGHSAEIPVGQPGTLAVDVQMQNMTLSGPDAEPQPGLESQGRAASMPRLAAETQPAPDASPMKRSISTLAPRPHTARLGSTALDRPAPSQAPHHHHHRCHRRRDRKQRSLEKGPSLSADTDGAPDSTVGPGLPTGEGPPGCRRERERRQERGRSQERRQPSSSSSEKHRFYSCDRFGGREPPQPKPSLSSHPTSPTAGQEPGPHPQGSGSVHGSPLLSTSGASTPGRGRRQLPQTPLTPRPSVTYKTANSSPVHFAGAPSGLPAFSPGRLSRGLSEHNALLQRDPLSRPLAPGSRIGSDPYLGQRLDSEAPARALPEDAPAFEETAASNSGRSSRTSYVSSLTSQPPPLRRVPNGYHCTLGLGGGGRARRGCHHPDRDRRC

Consider Cachd1 (natural protein), for which the percent reduction of the coIP of α2δ-1 with GFP CaV2.2 (1× Cachd1) was 71%.
